Reference: publication PMC6692047, “Ddc2^ATRIP promotes Mec1^ATR activation at RPA-ssDNA tracts” (PLoS Genetics, 2019)

Target: T1, Replication protein A (RPA), consisting of Rfa1, Rfa2 and Rfa3 (budding yeast, UniProt P22336 1-621; P26754 1-273; P26755 1-122)
T1 construct: Rfa1, subunit of budding yeast RPA; Rfa2, subunit of budding yeast RPA; Rfa3, subunit of budding yeast RPA; also called budding yeast RPA protein; source: purified as described [83]; copies: + +
Assay: pull-down; streptavidin beads coated with biotinylated oligonucleotide bio-oligo(dN)80 (5 pmol), incubated with RPA (1 pmol) for 30 min, then with Mec1-Ddc2, Mec1-Ddc2-S4, MBP, MBP-Ddc2 or MBP-Ddc2-S4 (0.5 pmol) for 30 min; buffer B (20 mM Tris-HCl pH 7.5, 100 mM NaCl, 0.01% NP-40, 10% glycerol, 100 μg/ml BSA), 30°C; immunoblot of captured proteins
Settings: both partners purified

T1 sequence (P22336 whole entry, chain 1 of 3): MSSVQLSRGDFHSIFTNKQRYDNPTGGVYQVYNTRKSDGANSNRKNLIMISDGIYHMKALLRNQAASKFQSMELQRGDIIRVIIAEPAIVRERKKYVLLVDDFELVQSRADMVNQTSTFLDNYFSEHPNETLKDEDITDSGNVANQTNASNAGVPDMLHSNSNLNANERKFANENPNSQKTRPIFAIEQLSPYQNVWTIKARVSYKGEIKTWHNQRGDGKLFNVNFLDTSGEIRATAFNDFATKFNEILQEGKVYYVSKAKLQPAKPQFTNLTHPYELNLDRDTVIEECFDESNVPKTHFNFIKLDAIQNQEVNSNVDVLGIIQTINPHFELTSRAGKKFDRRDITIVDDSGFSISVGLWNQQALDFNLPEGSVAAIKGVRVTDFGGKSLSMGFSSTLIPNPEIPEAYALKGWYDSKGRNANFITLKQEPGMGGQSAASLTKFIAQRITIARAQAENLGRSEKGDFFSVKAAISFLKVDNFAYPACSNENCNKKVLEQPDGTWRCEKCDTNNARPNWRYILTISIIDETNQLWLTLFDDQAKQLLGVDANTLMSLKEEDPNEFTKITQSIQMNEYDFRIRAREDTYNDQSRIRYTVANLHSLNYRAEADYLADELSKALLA
T1 sequence (P26754 whole entry, chain 2 of 3): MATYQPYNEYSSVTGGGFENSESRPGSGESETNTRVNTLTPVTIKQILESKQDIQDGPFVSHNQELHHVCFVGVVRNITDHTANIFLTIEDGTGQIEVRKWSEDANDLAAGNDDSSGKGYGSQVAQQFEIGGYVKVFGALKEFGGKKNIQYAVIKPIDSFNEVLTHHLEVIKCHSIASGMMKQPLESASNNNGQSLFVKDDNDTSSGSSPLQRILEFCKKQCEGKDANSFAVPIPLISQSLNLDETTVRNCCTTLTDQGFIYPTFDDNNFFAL
T1 sequence (P26755 whole entry, chain 3 of 3): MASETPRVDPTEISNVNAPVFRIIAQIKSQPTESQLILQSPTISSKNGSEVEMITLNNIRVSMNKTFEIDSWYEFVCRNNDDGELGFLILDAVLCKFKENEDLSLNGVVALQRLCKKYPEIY

Binder | binding result
MBP-Ddc2 (natural protein, budding yeast, UniProt Q04377 1-747, looked up, Ddc2 (ATRIP homolog), budding yeast; also called MBP-fused Ddc2; pMAL-Ddc2; source: E. coli Rosetta, purified (amylose resin)) MRRETVGEFSSDDDDDILLELGTRPPRFTQIPPSSAALQTQIPTTLEVTTTTLNNKQSKNDNQLVNQLNKAQGEASMLRDKINFLNIEREKEKNIQAVKVNELQVKHLQELAKLKQELQKLEDEKKFLQMEARGKSKREVITNVKPPSTTLSTNTNTITPDSSSVAIEAKPQSPQSKKRKISDNLLKKNMVPLNPNRIIPDETSLFLESILLHQIIGADLSTIEILNRLKLDYITEFKFKNFVIAKGAPIGKSIVSLLLRCKKTLTLDRFIDTLLEDIAVLIKEISVHPNESKLAVPFLVALMYQIVQFRPSATHNLALKDCFLFICDLIRIYHHVLKVPIHESNMNLHVEPQIFQYELIDYLIISYSFDLLEGILRVLQSHPKQTYMEFFDENILKSFEFVYKLALTISYKPMVNVIFSAVEVVNIITSIILNMDNSSDLKSLISGSWWRDCITRLYALLEKEIKSGDVYNENVDTTTLHMSKYHDFFGLIRNIGDNELGGLISKLIYTDRLQSVPRVISKEDIGMDSDKFTAPIIGYKMEKWLLKLKDEVLNIFENLLMIYGDDATIVNGEMLIHSSKFLSREQALMIERYVGQDSPNLDLRCHLIEHTLTIIYRLWKDHFKQLREEQIKQVESQLIMSLWRFLVCQTETVTANEREMRDHRHLVDSLHDLTIKDQASYYEDAFEDLPEYIEEELKMQLNKRTGRIMQVKYDEKFQEMARTILESKSFDLTTLEEADSLYISMGL | binds
MBP-Ddc2-S4 (natural protein, budding yeast, UniProt Q04377 1-747, looked up, Ddc2 (ATRIP homolog), budding yeast, with the two ddc2-S4 substitutions; also called MBP-fused Ddc2-S4; pMAL-Ddc2-S4; source: E. coli Rosetta, purified (amylose resin)) MRRETVGEFSSDDDDDILLELGTRPPRFTQIPPSSAALQTQIPTTLEVTTTTLNNKQSKNDNQLVNQLNKAQGEASMLRDKINFLNIEREKEKNIQAVKVNELQVKHLQELAKLKQELQKLEDEKKFLQMEARGKSKREVITNVKPPSTTLSTNTNTITPDSSSVAIEAKPQSPQSKKRKISDNLLKKNMVPLNPNRIIPDETSLFLESILLHQIIGADLSTIEILNRLKLDYITEFKFKNFVIAKGAPIGKSIVSLLLRCKETLTLDRFIDTLLEDIAVLIKEISVHPNESKLAVPFLVALMYQIVQFRPSATHNLALKDCFLFICDLIRIYHHVLKVPIHESNMNLHVEPQIFQYELIDYLIISYSFDLLEGILRVLQSYPKQTYMEFFDENILKSFEFVYKLALTISYKPMVNVIFSAVEVVNIITSIILNMDNSSDLKSLISGSWWRDCITRLYALLEKEIKSGDVYNENVDTTTLHMSKYHDFFGLIRNIGDNELGGLISKLIYTDRLQSVPRVISKEDIGMDSDKFTAPIIGYKMEKWLLKLKDEVLNIFENLLMIYGDDATIVNGEMLIHSSKFLSREQALMIERYVGQDSPNLDLRCHLIEHTLTIIYRLWKDHFKQLREEQIKQVESQLIMSLWRFLVCQTETVTANEREMRDHRHLVDSLHDLTIKDQASYYEDAFEDLPEYIEEELKMQLNKRTGRIMQVKYDEKFQEMARTILESKSFDLTTLEEADSLYISMGL | binds
